# Measured values taken from patent publication US10213494B2, “Treatment of synucleinopathies” (The Brigham and Women's Hospital, Inc., priority 2007, dated 2019).
# What was measured:
# GBA = conditions: Lieberman R et al., (2007); cited from earlier work
# [1] = tested on: α-synuclein protein (wild-type, human) in MES23.5 cells; assay: Sandwich ELISA of intracellular α-synuclein in MES23.5 cells co-transfected with wild-type human SNCA cDNA and lysosomal enzyme cDNA; assay type: cell-based; conditions: cathepsin F cDNA 5 μg/10 cm dish, 24 hours, n=3
# MES-syn cells = assay: LDH release assay of cellular integrity; assay type: cell-based, rodent; conditions: enzyme cDNA 5 μg/10 cm dish, versus control vector transfected cells
# Method: To confirm that the effect of Cathepsin D on lowering of αS in MES23.5 cells was specific and was not caused by a general decrease in cellular metabolism and integrity, the MTT and LDH assays were performed on MES-syn cells that had been co-transfected with the highest amount of Cathepsin D-encoding cDNA (5 μg/10 cm dish). Lysis of cells with 0.1% Triton-X® 100 served as a positive control, representing maximal cell death.
# To confirm that the effect of Cathepsin F on lowering of αS was specific and was not caused by a general decrease in cellular integrity, the LDH assay was performed on MES-syn cells that had been co-transfected with Cathepsin F-encoding CTSF cDNA (5 μg/10 cm dish). Lysis of cells with 0.1% Triton-X 100 served as a positive control for cell toxicity, promoting maximal cell death.
# [2] = tested on: α-synuclein protein (wild-type, human) in MES23.5 cells; assay: Sandwich ELISA of intracellular α-synuclein in MES23.5 cells co-transfected with wild-type human SNCA cDNA and lysosomal enzyme cDNA; assay type: cell-based; conditions: GBA variant plasmid 5 μg per 10 cm dish + 0.5 μg SNCA cDNA, 24 hours after transfection, no prosaposin; mean+/−sem
# Method: Sera from six rabbits were raised and affinity-purified at Open Biosystems, Inc. (openbiosystems.com) against recombinant, full-length human αS. Recombinant αS had been HPLC- and MS-characterized and subjected to amino acid composition and protein concentration analyses. For ELISA, 384-well MaxiSorp plates (Nunc, Inc) were coated with 50 μl/well capturing polyclonal Ab (hSA-2) diluted in coating buffer (NaHCO3 with 0.2% NaN3, pH 9.6). Following washes with PBS/0.05% Tween-20 (PBS-T), plates were blocked for 2 hours at 37° C. in blocking buffer (1.125% fish skin gelatin; PBS-T). After 4 washes, samples were loaded and incubated at 4° C. for 12 hours. Biotinylated Syn-1 mAb (as the assaying Ab) was generated using 200 μg Sulfo-NHS-LC Biotin (Pierce), diluted in blocking buffer and added to the plate for 2 hours at 37° C. Following 4 washes, ExtrAvidin phosphatase (Sigma) diluted in blocking buffer was applied for 1 hr at 37° C. Color development was carried out by using Fast-p-Nitrophenyl Phosphate (Sigma) and monitored kinetically at OD 405 nm every 5 minutes for up to 60 minutes.
# To optimize a ‘DNA: LIPOFECTAMINE® 2000’ ratio with low cell toxicity, MES23.5 cells were transfected with either 0.25, 0.5 or 1 μg αS-encoding, wild-type, human SNCA cDNA plus empty vector cDNA up to a total of 5.5 μg DNA per 10 cm dish. 24 hours after transfection, cell lysates were harvested as described above. For serial dilutions of cell lysates, blocking buffer containing 0.5% lysate from vector-transfected wells was used as diluent, which was also used to create the blank and the corresponding standard curve of recombinant human αS. Saturation kinetics were examined for identification of time point(s) where standards and sample dilutions were in the log phase.
# MES cells were transfected with 0.5 μg per 10 cm dish of αS-encoding SNCA cDNA-carrying plasmid, plus 5 μg per 10 cm dish of wild-type or mutant, human GBA-encoding plasmid. The GBA variants used were wild type, N370S, D409H, L444P, E235A, and E340A. These 5 GBA mutants were created by site-directed mutagenesis, using the Quickchange® kit (Stratagene), and sequence-verified. The N370S, D409H and L444P are known to occur (in the homozygous or compound heterozygous state) in Gaucher disease in the heterozygous state in Parkinson Disease patients and/or patients with dementia with Lewy bodies. The E235A and E340A mutant GBA proteins are not known to occur in people.
# 24 hours after transfection, MES cells were lysed as described above and all lysates were analyzed by ELISA. […] This is in contrast to the result observed in Example 5 above. The observed discrepancy can reflect the differences in total DNA transfected in the two paradigms (FIG. 2B; FIG. 2C versus FIG. 4), thereby leading to changes in the DNA:LIPOFECTAMINE® 2000 ratio, and in the role of co-expressed prosaposin (saposin C). It is therefore conceivable that wild-type GBA can have variable effects on αS levels in these MES23.5 cells, depending on the rate of αS import into lysosomes and the composition as well as activation state of more than one lysosomal enzyme.
# MES23.5 cells were transfected with 0.5 μg per 10 cm dish of an αS-encoding, wild-type, human SNCA cDNA-carrying plasmid (referred to as MES-hSNCA WT cells in the Western blot shown in FIG. 6), plus either 1.25, 2.5 or 5 μg per 10 cm dish of a human Cathepsin D-encoding CTSD cDNA plasmid, which was purchased from OriGene Technologies, Inc., and was under the control of a CMV promoter. The Cathepsin D clone was fully sequence-verified after isolation and maxiprep. Each transfection arm was balanced with empty vector DNA up to a total of 5.5 μg DNA per 10 cm dish. 24 hours after transfection, cells were lysed, and the resulting lysates were analyzed by the sandwich ELISA described herein. […]
# [3] = tested on: α-synuclein protein in MES23.5 cells; assay: Western blot of α-synuclein in co-transfected MES23.5 cells; assay type: cell-based, human; conditions: 24 hours
# Method: Cells were transfected with 0, 0.25, 0.5, 1, 5, and 10 μg (per 10 cm dish) of plasmid. 24 hours later, cells were washed with Tris-buffered saline and lysed in 140 mM NaCl, 50 mM Tris-Hcl, pH 8.0, 1 mM EDTA, 0.5% Triton-X100, and 1× protease inhibitors. Lysates were centrifuged at 100,000×g for 30 min at 4° C.; the top 2/3 of supernatants were removed and frozen in siliconized tubes at −80° C. Samples were run on SDS/PAGE, using 1 mM DTT as the reducing agent. Expression of the αS protein was confirmed at 24 hours post-transfection by Western blotting, where cell lysates were probed with a monoclonal antibody against αS protein (syn-1 antibody, BD Transduction Labs).
# MES23.5 cells were transfected with 0.5 μg αS-encoding SNCA cDNA per 10 cm dish plus either 1.25, 2.5 or 5 μg (low, medium, or high) GBA-encoding cDNA in the absence or presence of 5 μg of Prosaposin-encoding cDNA. All arms of the experiment were balanced up to a total of 10.5 μg cDNA per 10 cm dish using empty vector cDNA. The GBA- and Prosaposin-encoding cDNA plasmids under a CMV promoter, as well as the pCMV-XL5 empty vector were purchased from OriGene Technologies, Inc (clones had been fully sequence-verified after isolation and a maxiprep). 24 hours later, cells were lysed and probed for GBA and αS protein levels. The upper panel in of FIG. 2B3 is a representation of a Western Blot indicating expression of GBA protein in the absence and presence of co-transfected prosaposin. GBA was probed using the monoclonal antibody 8E4. GBA over-expression occurred in a slightly gene-dosage dependent way in the absence of prosaposin. In the presence of prosaposin over-expression, the GBA signal itself was decreased. […]
molecule,measurement,setting,value
OC[C@H]1CNC[C@@H](O)[C@@H]1O [isofagomine],effect on GBA activity,GBA,increase GBA activity in mice and humans
"cathepsin F: human lysosomal cysteine protease expressed from CTSF plasmid under a CMV promoter (protein, UniProt Q9UBX1 271-484, looked up) Cathepsin F: APPEWDWRSKGAVTKVKDQGMCGSCWAFSVTGNVEGQWFLNQGTLLSLSEQELLDCDKMDKACMGGLPSNAYSAIKNLGGLETEDDYSYQGHMQSCNFSAEKAKVYINDSVELSQNEQKLAAWLAKRGPISVAINAFGMQFYRHGISRPLRPLCSPWLIDHAVLLVGYGNRSDVPFWAIKNSWGTDWGEKGYYYLHRGSGACGVNTMASSAVVD","intracellular α-synuclein level, % of control levels",[1],51.7+/−14.1%
same,LDH signal,MES-syn cells,less than or equal to that of control vector transfected cells
"wild-type GBA: human acid-beta-glucocerebrosidase expressed from GBA-encoding cDNA plasmid under a CMV promoter (protein, UniProt P04062 40-536, looked up) Lysosomal acid …: ARPCIPKSFGYSSVVCVCNATYCDSFDPPTFPALGTFSRYESTRSGRRMELSMGPIQANHTGTGLLLTLQPEQKFQKVKGFGGAMTDAAALNILALSPPAQNLLLKSYFSEEGIGYNIIRVPMASCDFSIRTYTYADTPDDFQLHNFSLPEEDTKLKIPLIHRALQLAQRPVSLLASPWTSPTWLKTNGAVNGKGSLKGQPGDIYHQTWARYFVKFLDAYAEHKLQFWAVTAENEPSAGLLSGYPFQCLGFTPEHQRDFIARDLGPTLANSTHHNVRLLMLDDQRLLLPHWAKVVLTDPEAAKYVHGIAVHWYLDFLAPAKATLGETHRLFPNTMLFASEACVGSKFWEQSVRLGSWDRGMQYSHSIITNLLYHVVGWTDWNLALNPEGGPNWVRNFVDSPIIVDITKDTFYKQPMFYHLGHFSKFIPEGSQRVGLVASQKNDLDAVALMHPDGSAVVVVLNRSSKDVPLTIKDPAVGFLETISPGYSIHTYLWRRQ","intracellular α-synuclein level, % of vector cDNA control levels",[2],109.7+/−9.88%
same,α-synuclein protein level by Western blot,"[3]; GBA cDNA 1.25, 2.5 or 5 μg + 0.5 μg SNCA cDNA, absence of co-transfected prosaposin",lowered the co-expressed α-synuclein protein levels at the largest amount of co-transfected GBA cDNA
same,α-synuclein protein level by Western blot,[3]; GBA cDNA low/medium/high with 5 μg Prosaposin-encoding cDNA,strong decrease in α-synuclein protein levels at even the lower concentrations
